Data published in the supplement of paper PMC7877785.
± gives the uncertainty stated by the source.

Assay: self-splicing fitness, log relative to wild type (ln ratio); higher = more splicing; Tetrahymena group I intron in knt gene, E. coli kanamycin selection, DiMSum; sequences stand for … in CUCUCU…GGAGGGAAAAGUUAUCAGGCAUGCACCUGGUAGCUAGUCUUUAAACCAAUAGAUUGCAUCGGUUUAAAAGGCAAGACCGUCAAAUUGCGGGAAAGGGGUCAACAGCCGUUCAGUACCAAGUCUCAGGGGAAACUUUGAGAUGGCCUUGCAAAGGGUAUGGUAAUAAGCUGACGGACAUGGUCCUAACCACGCAGCCAAGUCCUAAGUCAACAGAUCUUCUGUUGAUAUGGAUGCAGUUCACAGACUAAAUGUCGGUCGGGGAAGAUGUAUUCUUCUCAUAAGAUAUAGUCGGACCUCUCCUUAAUGGGAGCUAGCGGAUGAAGUGAUGCAACACUGGAGCCGCUGGGAACUAAUUUGUAUGCGAAAGUAUAUUGAUUAGUUUUGGAGUACUCGUGGUCG
How it was run: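 Library with all eight P1ex-region intron nucleotides randomised, intron inside the knt kanamycin-resistance gene on pET-22b(+), in E. coli BL21(DE3). Cells grew overnight at 37°C or 30°C on LB agar with or without 25 μg/mL kanamycin (plus 100 μg/mL carbenicillin, 50 μM IPTG, 0.2% rhamnose), in six replicate transformations. Pooled colonies were amplicon-sequenced on Illumina HiSeq 2500. DiMSum fitness is the error-weighted combination of wild-type-normalised replicate fold changes, kanamycin versus none.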

| Sequence | self-splicing fitness (ln) (30 °C) | self-splicing fitness (ln) (37 °C) |
| --- | --- | --- |
| GUAAAGCAAUAUUACGGCUG | 0.0741 ± 0.066 | 0.175 ± 0.088 |
| GUAAAGCAAUAUUACGGCUU | -0.183 ± 0.11 | 0.219 ± 0.14 |
| GUAAAGCAAUAUUACGGGCU | -1.69 ± 0.069 | -1.24 ± 0.11 |
| GUAAAGCAAUAUUACGGUAU | -0.495 ± 0.059 | 0.118 ± 0.084 |
| GUAAAGCAAUAUUACGUACG | -0.843 ± 0.069 | -0.015 ± 0.1 |
| GUAAAGCAAUAUUACGUAUA | -1.53 ± 0.11 | -0.524 ± 0.14 |
| GUAAAGCAAUAUUACGUCCU | 0.164 ± 0.11 | 0.663 ± 0.16 |
| GUAAAGCAAUAUUACGUCGC | -1.35 ± 0.11 | -0.63 ± 0.13 |
| GUAAAGCAAUAUUACGUCGU | -0.978 ± 0.091 | -0.114 ± 0.14 |
| GUAAAGCAAUAUUACGUCUC | 0.704 ± 0.098 | 0.129 ± 0.11 |
| GUAAAGCAAUAUUACGUUAC | -1.15 ± 0.14 | -1.91 ± 0.21 |
| GUAAAGCAAUAUUACGUUUC | -2.07 ± 0.16 | -1.03 ± 0.22 |
| GUACAGCAAUAUUACGACAG | -3.31 ± 0.24 | -1.94 ± 0.21 |
| GUACAGCAAUAUUACGAUGG | -3.3 ± 0.17 | -2.48 ± 0.17 |
| GUACAGCAAUAUUACGAUUC | -0.318 ± 0.075 | -0.0725 ± 0.11 |
| GUACAGCAAUAUUACGCAAU | -2.58 ± 0.21 | -1.87 ± 0.27 |
| GUACAGCAAUAUUACGCCAU | -3.46 ± 0.23 | -2.32 ± 0.15 |
| GUACAGCAAUAUUACGCGAG | -1.73 ± 0.094 | -1.85 ± 0.12 |
| GUACAGCAAUAUUACGCUAC | – | -2.64 ± 0.48 |
| GUACAGCAAUAUUACGCUAG | -1.88 ± 0.12 | -0.374 ± 0.12 |
| GUACAGCAAUAUUACGCUAU | -3.82 ± 0.29 | -1.77 ± 0.2 |
| GUACAGCAAUAUUACGCUUC | -2.54 ± 0.19 | -2.69 ± 0.26 |
| GUACAGCAAUAUUACGGCCC | -0.268 ± 0.088 | -0.155 ± 0.11 |
| GUACAGCAAUAUUACGGUAU | -4.07 ± 0.18 | -2.45 ± 0.16 |
| GUACAGCAAUAUUACGGUCU | -0.535 ± 0.084 | -0.00413 ± 0.11 |

| Sequence | self-splicing fitness (ln) (30 °C) | self-splicing fitness (ln) (37 °C) |
| --- | --- | --- |
| GUACAGCAAUAUUACGUACA | -3 ± 0.15 | -1.63 ± 0.098 |
| GUACAGCAAUAUUACGUAGG | -2.79 ± 0.15 | -0.471 ± 0.12 |
| GUACAGCAAUAUUACGUCAU | -1.7 ± 0.09 | -1.13 ± 0.11 |
| GUACAGCAAUAUUACGUUGC | -3.96 ± 0.13 | -3.05 ± 0.14 |
| GUACAGCAAUAUUACGUUUA | -2.62 ± 0.15 | -1.89 ± 0.11 |
| GUACAGCAAUAUUACGUUUG | -3.06 ± 0.13 | -2.59 ± 0.17 |
| GUAGAGCAAUAUUACGAAAU | -1 ± 0.15 | -1.21 ± 0.17 |
| GUAGAGCAAUAUUACGAACU | -1.19 ± 0.23 | -0.867 ± 0.24 |
| GUAGAGCAAUAUUACGAAGA | -3.65 ± 0.29 | -2.22 ± 0.43 |
| GUAGAGCAAUAUUACGCAAC | -1.79 ± 0.24 | -0.94 ± 0.39 |
| GUAGAGCAAUAUUACGCACA | -0.23 ± 0.14 | -0.117 ± 0.14 |
| GUAGAGCAAUAUUACGCAGU | -1.39 ± 0.11 | -1.45 ± 0.17 |
| GUAGAGCAAUAUUACGCGCA | -0.299 ± 0.1 | 0.0346 ± 0.13 |
| GUAGAGCAAUAUUACGCGUC | -0.836 ± 0.18 | -0.0736 ± 0.22 |
| GUAGAGCAAUAUUACGGCGG | -1.86 ± 0.12 | -1.99 ± 0.18 |
| GUAGAGCAAUAUUACGGGAC | -1.46 ± 0.2 | -1.13 ± 0.15 |
| GUAGAGCAAUAUUACGGUGU | -1.82 ± 0.081 | -1.23 ± 0.099 |
| GUAGAGCAAUAUUACGGUUC | -1.84 ± 0.11 | -0.825 ± 0.14 |
| GUAGAGCAAUAUUACGGUUG | -2.62 ± 0.15 | -1.13 ± 0.22 |
| GUAGAGCAAUAUUACGUAAG | -2.29 ± 0.26 | -0.825 ± 0.27 |
| GUAGAGCAAUAUUACGUACG | -1.92 ± 0.19 | -1.35 ± 0.35 |
| GUAGAGCAAUAUUACGUAUU | -2.43 ± 0.12 | -1.42 ± 0.13 |
| GUAGAGCAAUAUUACGUCCG | -2.26 ± 0.27 | -2.49 ± 0.49 |
| GUAGAGCAAUAUUACGUUGA | -2.98 ± 0.2 | -0.879 ± 0.17 |
| GUAUAGCAAUAUUACGAAAC | – | -1.02 ± 0.49 |

| Sequence | self-splicing fitness (ln) (30 °C) | self-splicing fitness (ln) (37 °C) |
| --- | --- | --- |
| GUAUAGCAAUAUUACGAACC | -2.63 ± 0.43 | -0.238 ± 0.23 |
| GUAUAGCAAUAUUACGAAGA | -3.64 ± 0.47 | -0.936 ± 0.23 |
| GUAUAGCAAUAUUACGACAA | -0.741 ± 0.27 | -1.34 ± 0.3 |
| GUAUAGCAAUAUUACGACGU | -0.443 ± 0.069 | 0.436 ± 0.092 |
| GUAUAGCAAUAUUACGACUA | -0.438 ± 0.21 | 0.00698 ± 0.23 |
| GUAUAGCAAUAUUACGACUC | -0.23 ± 0.14 | 0.0743 ± 0.23 |
| GUAUAGCAAUAUUACGAGGA | -2.45 ± 0.26 | -2.66 ± 0.38 |
| GUAUAGCAAUAUUACGAGGC | -2.1 ± 0.33 | -2.18 ± 0.47 |
| GUAUAGCAAUAUUACGAGGU | -2.99 ± 0.26 | -0.619 ± 0.28 |
| GUAUAGCAAUAUUACGAUGG | -3.43 ± 0.35 | -0.958 ± 0.24 |
| GUAUAGCAAUAUUACGCAAC | -2.53 ± 0.37 | – |
| GUAUAGCAAUAUUACGCACC | -1.85 ± 0.17 | -1.66 ± 0.27 |
| GUAUAGCAAUAUUACGCAGU | – | -2.33 ± 0.37 |
| GUAUAGCAAUAUUACGCAUC | -2.15 ± 0.17 | -0.982 ± 0.13 |
| GUAUAGCAAUAUUACGCCGG | -2.45 ± 0.37 | -1.59 ± 0.35 |
| GUAUAGCAAUAUUACGCGUG | -2.13 ± 0.18 | -0.201 ± 0.14 |
| GUAUAGCAAUAUUACGCUCA | – | -0.615 ± 0.36 |
| GUAUAGCAAUAUUACGGAGU | -3.8 ± 0.3 | -3.49 ± 0.29 |
| GUAUAGCAAUAUUACGGCCU | -1.29 ± 0.12 | -0.582 ± 0.16 |
| GUAUAGCAAUAUUACGGUAA | -2.59 ± 0.23 | -1.24 ± 0.15 |
| GUAUAGCAAUAUUACGGUAC | – | -2.25 ± 0.33 |
| GUAUAGCAAUAUUACGUAAG | -1.48 ± 0.13 | -0.567 ± 0.14 |
| GUAUAGCAAUAUUACGUUCG | -2.09 ± 0.21 | -1.53 ± 0.19 |
| GUAUAGCAAUAUUACGUUUA | -2.74 ± 0.19 | -1.52 ± 0.17 |
| GUCAAGCAAUAUUACGAAAU | -2.14 ± 0.13 | -0.595 ± 0.12 |

| Sequence | self-splicing fitness (ln) (30 °C) | self-splicing fitness (ln) (37 °C) |
| --- | --- | --- |
| GUCAAGCAAUAUUACGAACA | -2.25 ± 0.22 | -1.24 ± 0.19 |
| GUCAAGCAAUAUUACGACUA | -3.5 ± 0.18 | -2.03 ± 0.12 |
| GUCAAGCAAUAUUACGCAGU | -3.31 ± 0.33 | -1.16 ± 0.19 |
| GUCAAGCAAUAUUACGCCGU | -2.32 ± 0.31 | -0.783 ± 0.27 |
| GUCAAGCAAUAUUACGCGAA | -1.88 ± 0.085 | -0.888 ± 0.091 |
| GUCAAGCAAUAUUACGCGCU | -1.88 ± 0.092 | -0.425 ± 0.087 |
| GUCAAGCAAUAUUACGCUGA | -5.3 ± 0.45 | -3.74 ± 0.42 |
| GUCAAGCAAUAUUACGCUUC | -4.61 ± 0.42 | -2.4 ± 0.25 |
| GUCAAGCAAUAUUACGGCUG | -4 ± 0.3 | – |
| GUCAAGCAAUAUUACGGCUU | -4.12 ± 0.35 | -2.74 ± 0.31 |
| GUCAAGCAAUAUUACGGGCU | -4.5 ± 0.25 | -4.77 ± 0.31 |
| GUCAAGCAAUAUUACGGGUC | -3.45 ± 0.19 | -2.16 ± 0.18 |
| GUCAAGCAAUAUUACGUCCC | -1.22 ± 0.29 | -0.2 ± 0.26 |
| GUCAAGCAAUAUUACGUGAA | -1.01 ± 0.072 | 0.556 ± 0.083 |
| GUCAAGCAAUAUUACGUGGG | -3 ± 0.13 | -2.23 ± 0.2 |
| GUCAAGCAAUAUUACGUUCC | -1.5 ± 0.11 | -0.728 ± 0.13 |
| GUCCAGCAAUAUUACGACCG | -2.21 ± 0.5 | – |
| GUCCAGCAAUAUUACGAGAA | -0.724 ± 0.14 | -0.763 ± 0.14 |
| GUCCAGCAAUAUUACGAGCA | -0.945 ± 0.12 | -1.08 ± 0.15 |
| GUCCAGCAAUAUUACGAGCU | – | -1.96 ± 0.31 |
| GUCCAGCAAUAUUACGCACC | -2 ± 0.17 | -0.64 ± 0.17 |
| GUCCAGCAAUAUUACGCACU | -1.58 ± 0.082 | 0.818 ± 0.11 |
| GUCCAGCAAUAUUACGCGCC | -1.29 ± 0.11 | -0.848 ± 0.14 |
